# Assay results as given in IntAct's records for PubMed 19513235.
# B1: Mitogen-activated protein kinase kinase 2 (Arabidopsis thaliana (Mouse-ear cress)), Q9S7U9 (parent)
# chain: MKKGGFSNNLKLAIPVAGEQSITKFLTQSGTFKDGDLRVNKDGVRIISQLEPEVLSPIKPADDQLSLSDLDMVKVIGKGSSGVVQLVQHKWTGQFFALKVIQLNIDEAIRKAIAQELKINQSSQCPNLVTSYQSFYDNGAISLILEYMDGGSLADFLKSVKAIPDSYLSAIFRQVLQGLIYLHHDRHIIHRDLKPSNLLINHRGEVKITDFGVSTVMTNTAGLANTFVGTYNYMSPERIVGNKYGNKSDIWSLGLVVLECATGKFPYAPPNQEETWTSVFELMEAIVDQPPPALPSGNFSPELSSFISTCLQKDPNSRSSAKELMEHPFLNKYDYSGINLASYFTDAGSPLATLGNLSGTFSV
# B2: Mitogen-activated protein kinase kinase 2 (Arabidopsis thaliana (Mouse-ear cress)), Q9S7U9 (parent)
# chain: B1 chain
# partner: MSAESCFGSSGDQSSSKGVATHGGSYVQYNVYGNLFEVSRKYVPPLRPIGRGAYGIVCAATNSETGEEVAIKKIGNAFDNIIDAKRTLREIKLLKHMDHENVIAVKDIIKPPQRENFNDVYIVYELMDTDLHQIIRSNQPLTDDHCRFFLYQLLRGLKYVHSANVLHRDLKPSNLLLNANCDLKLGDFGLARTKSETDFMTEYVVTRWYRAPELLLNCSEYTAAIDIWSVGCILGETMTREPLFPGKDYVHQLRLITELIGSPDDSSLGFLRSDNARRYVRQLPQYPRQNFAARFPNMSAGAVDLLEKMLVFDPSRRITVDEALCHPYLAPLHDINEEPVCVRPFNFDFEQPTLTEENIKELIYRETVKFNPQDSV
# Variants of: B1
# Details: with mpk6_arath MPK6, Q39026
# Chain of mpk6_arath MPK6, Q39026 (Q39026 whole entry): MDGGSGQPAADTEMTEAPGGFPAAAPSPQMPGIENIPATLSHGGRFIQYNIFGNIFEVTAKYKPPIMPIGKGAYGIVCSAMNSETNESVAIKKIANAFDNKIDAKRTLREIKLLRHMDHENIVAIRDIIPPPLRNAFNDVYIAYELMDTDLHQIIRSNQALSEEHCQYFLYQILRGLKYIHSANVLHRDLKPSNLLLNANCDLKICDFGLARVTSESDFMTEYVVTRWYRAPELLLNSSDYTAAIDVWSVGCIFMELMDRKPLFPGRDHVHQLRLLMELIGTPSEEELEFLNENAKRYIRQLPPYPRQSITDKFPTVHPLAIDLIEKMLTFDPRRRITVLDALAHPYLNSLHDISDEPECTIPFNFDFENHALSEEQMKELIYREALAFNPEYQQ
row,effect of a mutation on the interaction,Variant
1,increasing interaction,MKKGGFSNNLKLAIPVAGEQSITKFLTQSGTFKDGDLRVNKDGVRIISQLEPEVLSPIKPADDQLSLSDLDMVKVIGKGSSGVVQLVQHKWTGQFFALKVIQLNIDEAIRKAIAQELKINQSSQCPNLVTSYQSFYDNGAISLILEYMDGGSLADFLKSVKAIPDSYLSAIFRQVLQGLIYLHHDRHIIHRDLKPSNLLINHRGEVKITDFGVSTVMTNTAGLANEFVGTYNYMSPERIVGNKYGNKSDIWSLGLVVLECATGKFPYAPPNQEETWTSVFELMEAIVDQPPPALPSGNFSPELSSFISTCLQKDPNSRSSAKELMEHPFLNKYDYSGINLASYFTDAGSPLATLGNLSGTFSV [T226E]
2,increasing interaction,MKKGGFSNNLKLAIPVAGEQSITKFLTQSGTFKDGDLRVNKDGVRIISQLEPEVLSPIKPADDQLSLSDLDMVKVIGKGSSGVVQLVQHKWTGQFFALKVIQLNIDEAIRKAIAQELKINQSSQCPNLVTSYQSFYDNGAISLILEYMDGGSLADFLKSVKAIPDSYLSAIFRQVLQGLIYLHHDRHIIHRDLKPSNLLINHRGEVKITDFGVSTVMTNDAGLANTFVGTYNYMSPERIVGNKYGNKSDIWSLGLVVLECATGKFPYAPPNQEETWTSVFELMEAIVDQPPPALPSGNFSPELSSFISTCLQKDPNSRSSAKELMEHPFLNKYDYSGINLASYFTDAGSPLATLGNLSGTFSV [T220D]

# Variants of: B1
# Details: with mpk10_arath MPK10, Q9M1Z5
# Chain of mpk10_arath MPK10, Q9M1Z5 (Q9M1Z5 whole entry): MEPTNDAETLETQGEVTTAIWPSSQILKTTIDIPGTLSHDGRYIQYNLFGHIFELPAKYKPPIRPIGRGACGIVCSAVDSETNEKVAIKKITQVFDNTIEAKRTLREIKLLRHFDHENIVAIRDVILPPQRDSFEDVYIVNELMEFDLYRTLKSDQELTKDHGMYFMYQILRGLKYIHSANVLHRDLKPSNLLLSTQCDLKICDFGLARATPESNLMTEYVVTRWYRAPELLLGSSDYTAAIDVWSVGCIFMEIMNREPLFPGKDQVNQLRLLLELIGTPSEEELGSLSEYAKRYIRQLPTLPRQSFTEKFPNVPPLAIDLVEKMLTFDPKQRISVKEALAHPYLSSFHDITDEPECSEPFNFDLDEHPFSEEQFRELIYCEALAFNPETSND
row,effect of a mutation on the interaction,Variant
1,increasing interaction,MKKGGFSNNLKLAIPVAGEQSITKFLTQSGTFKDGDLRVNKDGVRIISQLEPEVLSPIKPADDQLSLSDLDMVKVIGKGSSGVVQLVQHKWTGQFFALKVIQLNIDEAIRKAIAQELKINQSSQCPNLVTSYQSFYDNGAISLILEYMDGGSLADFLKSVKAIPDSYLSAIFRQVLQGLIYLHHDRHIIHRDLKPSNLLINHRGEVKITDFGVSTVMTNTAGLANEFVGTYNYMSPERIVGNKYGNKSDIWSLGLVVLECATGKFPYAPPNQEETWTSVFELMEAIVDQPPPALPSGNFSPELSSFISTCLQKDPNSRSSAKELMEHPFLNKYDYSGINLASYFTDAGSPLATLGNLSGTFSV [T226E]
2,increasing interaction,MKKGGFSNNLKLAIPVAGEQSITKFLTQSGTFKDGDLRVNKDGVRIISQLEPEVLSPIKPADDQLSLSDLDMVKVIGKGSSGVVQLVQHKWTGQFFALKVIQLNIDEAIRKAIAQELKINQSSQCPNLVTSYQSFYDNGAISLILEYMDGGSLADFLKSVKAIPDSYLSAIFRQVLQGLIYLHHDRHIIHRDLKPSNLLINHRGEVKITDFGVSTVMTNDAGLANTFVGTYNYMSPERIVGNKYGNKSDIWSLGLVVLECATGKFPYAPPNQEETWTSVFELMEAIVDQPPPALPSGNFSPELSSFISTCLQKDPNSRSSAKELMEHPFLNKYDYSGINLASYFTDAGSPLATLGNLSGTFSV [T220D]

# Variants of: B1
# Details: with mpk13_arath MPK13, Q9LQQ9
# Chain of mpk13_arath MPK13, Q9LQQ9 (Q9LQQ9 whole entry): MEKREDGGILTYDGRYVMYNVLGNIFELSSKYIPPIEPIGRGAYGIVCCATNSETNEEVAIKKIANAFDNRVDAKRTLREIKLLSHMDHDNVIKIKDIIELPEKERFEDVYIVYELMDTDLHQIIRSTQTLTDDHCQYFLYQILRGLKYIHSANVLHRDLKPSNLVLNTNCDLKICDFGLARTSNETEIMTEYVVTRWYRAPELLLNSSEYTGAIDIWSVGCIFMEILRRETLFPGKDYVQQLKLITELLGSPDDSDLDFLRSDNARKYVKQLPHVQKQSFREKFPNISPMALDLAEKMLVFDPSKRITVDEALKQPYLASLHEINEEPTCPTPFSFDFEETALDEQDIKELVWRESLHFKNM
row,effect of a mutation on the interaction,Variant
1,increasing interaction,MKKGGFSNNLKLAIPVAGEQSITKFLTQSGTFKDGDLRVNKDGVRIISQLEPEVLSPIKPADDQLSLSDLDMVKVIGKGSSGVVQLVQHKWTGQFFALKVIQLNIDEAIRKAIAQELKINQSSQCPNLVTSYQSFYDNGAISLILEYMDGGSLADFLKSVKAIPDSYLSAIFRQVLQGLIYLHHDRHIIHRDLKPSNLLINHRGEVKITDFGVSTVMTNTAGLANEFVGTYNYMSPERIVGNKYGNKSDIWSLGLVVLECATGKFPYAPPNQEETWTSVFELMEAIVDQPPPALPSGNFSPELSSFISTCLQKDPNSRSSAKELMEHPFLNKYDYSGINLASYFTDAGSPLATLGNLSGTFSV [T226E]
2,increasing interaction,MKKGGFSNNLKLAIPVAGEQSITKFLTQSGTFKDGDLRVNKDGVRIISQLEPEVLSPIKPADDQLSLSDLDMVKVIGKGSSGVVQLVQHKWTGQFFALKVIQLNIDEAIRKAIAQELKINQSSQCPNLVTSYQSFYDNGAISLILEYMDGGSLADFLKSVKAIPDSYLSAIFRQVLQGLIYLHHDRHIIHRDLKPSNLLINHRGEVKITDFGVSTVMTNDAGLANTFVGTYNYMSPERIVGNKYGNKSDIWSLGLVVLECATGKFPYAPPNQEETWTSVFELMEAIVDQPPPALPSGNFSPELSSFISTCLQKDPNSRSSAKELMEHPFLNKYDYSGINLASYFTDAGSPLATLGNLSGTFSV [T220D]

# Variants of: B2
# Details: with mpk4_arath MPK4, Q39024
row,effect of a mutation on the interaction,Variant
1,increasing interaction,MKKGGFSNNLKLAIPVAGEQSITKFLTQSGTFKDGDLRVNKDGVRIISQLEPEVLSPIKPADDQLSLSDLDMVKVIGKGSSGVVQLVQHKWTGQFFALKVIQLNIDEAIRKAIAQELKINQSSQCPNLVTSYQSFYDNGAISLILEYMDGGSLADFLKSVKAIPDSYLSAIFRQVLQGLIYLHHDRHIIHRDLKPSNLLINHRGEVKITDFGVSTVMTNDAGLANTFVGTYNYMSPERIVGNKYGNKSDIWSLGLVVLECATGKFPYAPPNQEETWTSVFELMEAIVDQPPPALPSGNFSPELSSFISTCLQKDPNSRSSAKELMEHPFLNKYDYSGINLASYFTDAGSPLATLGNLSGTFSV [T220D]
2,increasing interaction,MKKGGFSNNLKLAIPVAGEQSITKFLTQSGTFKDGDLRVNKDGVRIISQLEPEVLSPIKPADDQLSLSDLDMVKVIGKGSSGVVQLVQHKWTGQFFALKVIQLNIDEAIRKAIAQELKINQSSQCPNLVTSYQSFYDNGAISLILEYMDGGSLADFLKSVKAIPDSYLSAIFRQVLQGLIYLHHDRHIIHRDLKPSNLLINHRGEVKITDFGVSTVMTNTAGLANEFVGTYNYMSPERIVGNKYGNKSDIWSLGLVVLECATGKFPYAPPNQEETWTSVFELMEAIVDQPPPALPSGNFSPELSSFISTCLQKDPNSRSSAKELMEHPFLNKYDYSGINLASYFTDAGSPLATLGNLSGTFSV [T226E]
